From publication PMC10220053

Biological target: Eaf3^MRG–Rco1^PHD1–SID complex (S. cerevisiae) (UniProt Q12432)
Assay: ITC; H3 1–12 peptides with the Eaf3^MRG–Rco1^PHD1–SID complex or with Rco1^PHD1 alone

Eaf3^MRG–Rco1^PHD1–SID complex (S. cerevisiae), sequence (Q12432 218-401, chain 1 of 2): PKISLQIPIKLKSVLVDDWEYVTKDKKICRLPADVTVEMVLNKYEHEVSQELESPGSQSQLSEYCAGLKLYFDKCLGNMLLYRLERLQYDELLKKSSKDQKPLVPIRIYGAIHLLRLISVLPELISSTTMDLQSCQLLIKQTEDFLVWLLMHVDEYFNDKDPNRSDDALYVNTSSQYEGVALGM
Eaf3^MRG–Rco1^PHD1–SID complex (S. cerevisiae), sequence (Q04779 240-376, chain 2 of 2, further chain): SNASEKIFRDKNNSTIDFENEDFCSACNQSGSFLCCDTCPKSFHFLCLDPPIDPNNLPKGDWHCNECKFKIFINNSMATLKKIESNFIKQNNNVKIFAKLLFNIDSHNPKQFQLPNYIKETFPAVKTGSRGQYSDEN

Substance	Kd [µM]
H3K4me0^1–12 peptide (from UniProt P61830 2-13)	22
H3K4me1^1–12 peptide (from UniProt P61830 2-13)	65
H3K4me2^1–12 peptide (from UniProt P61830 2-13)	360
